{"source": "the DeepSol protein solubility set"}
{"assay": "soluble on expression in E. coli; label from the status in PepcDB or PDB records"}
{"sequence": "MGSDKIHHHHHHMRFAPPNPLRIADRASGLNSLSVRSYNERLVLSLLLQNEATTRLEIGEKTGLSAQTISVIVRSLEQEGLVVRGEAQKGRVGPPTTPLMLNSEGAYSVGVSVGYHNTHIVVVDFIGNVQHHRVMPHKAADTFDAPEALALEIRLAVAGLSESRQARIAGVGLALPTPPIRSEPDHDVLHRYLEAEFGLPVFVQNDITAAAGGESLFGTARQLQDFLFFYLGARLHCRLVLNHQIYNGNSPLSYDVGVLALERRLPADSAMAEKLWGQDLSWPPLEATLADWQQACAENLIQLTQSLLQFIELRTVVLSSFVPAAICEALCRLVRQEIPSVNAVVGRTSAAPKAVGAASLPFSSRFMVN", "soluble on expression in E. coli": "not soluble"}
{"sequence": "MGSDKIHHHHHHMPHKASVFIVEFKFELESCPLGVVIPLEESKNKLASVKPLVDLTRPDMERVNQLILSRAGSDVQMIPEVANHLISSGGKRLRPMLTLASASMFGYEGDNHIKLATSVEFMHTATLLHDDVVDESDLRRGKSTARTIWGNQASVLVGDFLLGQAFRMMVDVGSLDALDVLSTAASVIAEGEVLQLSVAKNMETTEDDYLQVIRAKTAALFAAAAEVGPIVAKTDKASRSALKSYGMNLGLAFQLVDDVLDYGGKSADLGKNTGDDFREGKITLPVILSYRRGTQDERAFWRNAIEKGESSDENLEKALGLITKYNGLGDTIGRATHYGTIARDALAPLPQSPWKNALLEVIDFCIERLN", "soluble on expression in E. coli": "not soluble"}
{"sequence": "AWFDWPVHRVYVNIGKTRRFHQHYYRRDVGSHVWQHNPVHRRGVAYRDRKTSDFYGKRPPRMAPVRPETRGYPGKFPGRPESRQQQPARERRDVPGAPQTGKGPGQVPRRDSTVAPQAQPPQREQVQKPARRDTPFQGVGEGSFERRAIKRGESSIRSVTPAPQGGGRGGWSGQRAPSGGGRGGGEMRMPGGGGGGGRGGGKKEFR", "soluble on expression in E. coli": "not soluble"}
{"sequence": "MSYKEGDVLVTNGEQSPGYKIVEIKGLVVGITVRSRGLGKNIIASLRSLLGGEIKEYVELAEQARLQALQRMVDNAKALGANAVVNVRFDSNELSEAMDEIIAYGTAVVVEKSS", "soluble on expression in E. coli": "soluble"}
{"sequence": "MGSDKIHHHHHHMTTPFKRIHLIVMDSVGIGEGPDAAAFNDEGSHTLKHTLEGFKQKLPHLEQLGLGNIAPLPVVSKVTHPGAFYTKLSEASVGKDTMTGHWEIMGLNIMQPFKVYPNGFPAELVKEIESMTGRKVVANRPASGTQIIDEWGEHQMKTGDLIVYTSADPVLQIAAHEDVIPLEELYEICEKVRELTKDPKYLIGRIIARPYVGEPGNFTRTSNRHDYALKPFGRTVMNSLKDSGYDVIAIGKINDIYDGEGVTEAIRTKNNMDGMDQLIEVVKKDFEGISFLNLVDFDALYGHRRDKEGYAQAIKDFDLRLPELMNHLREDDLVIITADHGNDPIAKGTDHTREYIPLLMFSPKIKDYHELSQDTTFSSIGVTIADNFNVELPKYGKSYLKEMGVEHQ", "soluble on expression in E. coli": "not soluble"}
{"sequence": "IARVVVHPDYRADGLGILAVRTAVEWIEERRVPEMRMRKHLVETIAQMARFNPFFEKAGFYYLWDTASGKPVLYKPLSEEAE", "soluble on expression in E. coli": "not soluble"}
{"sequence": "MMDCRLGCGACCIAPSISSPIPGMPNGKPAGVRCVQLNEDNLCQLFGRPERPKVCHDFKACPVVCGKTNQQALANLTELERLTLEHHHHHH", "soluble on expression in E. coli": "not soluble"}
{"sequence": "MSFVNVDPFGMLAAAATLESLGSHMAVSNAAVASVTTKVPPPAADYVSKKLSLFFSSHGQQYQVQAARGTAFHRKLVRTLANGALAYEEVEIANNEGF", "soluble on expression in E. coli": "not soluble"}
{"sequence": "HPKLVSSTPAEGSEGAAPAKIELHFSENLVTQFSGAKLVMTAMPGMEHSPMAVKAAVSGGGDPKTMVITPASPLTAGTYKVDWRAVSSDTFPITGSVTFKVK", "soluble on expression in E. coli": "soluble"}
{"sequence": "MFNDLESKLQSLLERNITSVLELENWLFDELRVNAEIEEKITSSLIATYRDTDNRNMRDLHMYNQNTIQPLLKRYNAKFDQKFIECPFSNLLDERKYEFMKKARFVKSKMFNEKNIALSIKGQECITKYREIMSNITINWEGEQKTYAHVKAKLDNPNRAIRKKAWYALCEARSVVKPEVDRIMNELIQLRNEIALNAGFNNYSEYAFKQKNRDYSIDDCYKLHESIEKYVVPIWKQLGSISKKNLDVKTYRPWDLSPCNLPKAPFQNAINLLDGVEEMFRTTDLYFYEKFIHIRKAGCIDVEERENKAAGAICFTLPHSKEVFVYSNFSPSFYAINALIHEVGHAFHFYKQFKNDSSMQERYLREEVAELYSLSLELLVMDKLNVFYKQEDEYKEVQRVQIYRALSLLMSSIAGDVFQHWIYENPNHTPEERDKKYAEICKRYQYSTVDIAGLEDEIGASWIESFHYVQFPFYKIEYAIAQIGAMQLFQIYWEDPEKAIDFFKEGASADWNLSIQEIYEKTGVTFDFSEERIESTASVILDLINELK", "soluble on expression in E. coli": "not soluble"}
{"sequence": "MVLLHKSTHIFPTDFASVSRAFFNRYPNPYSPHVLSIDTISRNVDQEGNLRTTRLLKKSGKLPTWVKPFLRGITETWIIEVSVVNPANSTMKTYTRNLDHTGIMKVEEYTTYQFDSATSSTIADSRVKFSSGFNMGIKSKVEDWSRTKFDENVKKSRMGMAFVIQKLEEARNPQF", "soluble on expression in E. coli": "not soluble"}
{"sequence": "MKTVKHLLQEKGHTVVAIGPDDSVFNAMQKMAADNIGALLVMKDEKLVGILTERDFSRKSYLLDKPVKDTQVKEIMTRQVAYVDLNNTNEDCMALITEMRVRHLPVLDDGKVIGLLSIGDLVKDAISQHQFVINQLERYIYDTREI", "soluble on expression in E. coli": "soluble"}
{"sequence": "MSLNIKDEHIDSVCSLLDQLVGNVSFKNLFTGYGLFHKEETMFAIWQNKKLYLRGEGVLAIQLTKLGCEPFTTNELNKRFVLSQYYALSDQILRSNRLCRKLIILSIKQILEQKLECTLRKLNRLKDLPNLTIKHERALIKVGITNVAMLREIGAENALVELKKSGSGATLDFYWKLVCALQNKNSQMLSQAEKERLLKKLNEVWRKNGLKGYRKLDDEEGHHHHHH", "soluble on expression in E. coli": "soluble"}
{"sequence": "MENEMKEKAVIFTGNSISHEDAKKILLANYQPPVRRFQLEKFIQQGYKVMGIIDGIFFDRAAVGHREIISALNAGVRVVGGASMGALRASELDTHGMIGVGKVYEWYRDGVIESDDEVAISTNPETFEPISVPLVNIRETLKAALGAGILSEKEYEDILELAISTYYPDRSYLGLTKEGAKKGLISEEKRKLLLDFCINSEVDVKKRDAVLVIETVKRLVEETEV", "soluble on expression in E. coli": "not soluble"}
{"sequence": "MLFIIKYYEPKNLYEHILFILKHLCRSKSMILNPQKLSVDFGNGITATEPIIPRRYTLTHSDITAKLFLNIGLTYAYNKMTTMRDEVLGEWVKKSQDYSYQVFLHVDGRLGPKTTAIRNKIFRRELPLALEAIRYGDKRFFNAHPYLDNAPITVFFISTNPNFNKIENWGTFSDYNIESYYRNYKNVYLLDRKVGDVTGDDIPDTVSLYGEKEAPSEIFADDITVIITDGSTGNTTTITPEFNSGYNPTIFLGDFTKNRVYDIKISIDSGGSGGYGFFYIYSFMENTFREIFNFDAYNKEYKYKVDYDDLYKVNVGAITLNKLFILDISYKGYDVLSQYYYENGKLIKPVDGDVLALGALVPIVSNELLDFYNLLAFQRIIGTYNADTLGYVQNLLSWDGKNFTPSSTFVNISGSSLISPYLEHHHHHH", "soluble on expression in E. coli": "not soluble"}
{"sequence": "GPGSMRFRRVLAPLAASPHRWKTQRSPRGEETMGEGGAIEPDTSEAWVRNYVARAVREGRQTKESAEYFESIMNDQVEFRQYIQEARRLLNNQDPRTLTKYQRGHFAERLSRQMSGVAAERLMRAHAEESNARRHTQDGTPTGENYWFEAGNTLASPSVPGFVKDEVMREMREDRKKTSAAFEESEELQAMADKDEAFAEHLRRQRQHLFRSNDDVN", "soluble on expression in E. coli": "not soluble"}
{"sequence": "MGSDKIHHHHHHMIIQRVVLNSRPGKNGNPVAENFRVEEFSLLDALNEGQVQVRTLYLSVDPYMRCKMNEDTGTDYLAPWQLAQVADGGGIGIVEESKHQKLAKGDFVTSFYWPWQTKAILDGNGLEKVDPQLVDGHLSYFLGAIGMPGLTSLIGVQEKGHISAGSNQTMVVSGAAGACGSLAGQIGHLLGCSRVVGICGTQEKCLFLTSELGFDAAVNYKTGNVAEQLREACPGGVDVYFDNVGGDISNTVISQMNENSHIILCGQISQYNKDVPYPPPLPPAVEAIRKERNITRERFTVLNYKDKFEPGILQLSQWFKEGKLKVKETVAKGLENMGVAFQSMMTGGNVGKQIVCISEDSSL", "soluble on expression in E. coli": "soluble"}
{"sequence": "MKLQKQLLEAVEHKQLRPLDVQFALTVAGDEHPAVTLAAALLSHDAGEGHVCLPLSRLENNEASNPLLATCVSEIGELQNWEECLLASQAVSRGDEPTPMILCGDRLYLNRMWCNERTVARFFNEVNHTIEVDEALLAQTLDKLFPVSDEINWQKVAAAVALTRRISVISGGPGTGKTTTVAKLLAALIQMADGERCRIRLAAPTGKAAARLTESLGKALRQLPLTDEQKKRIPEDASTLHRLLGAQPGSQRLRHHAGNPLHLDVLVVDEASMIDLPMMSRLIDALPDHARVIFLGDRDQLASVEAGAVLGDICAYANAGFTAERARQLSRLTGTHVPAGTGTEAASLRDSLCLLQKSYRFGSDSGIGQLAAAINRGDKTAVKTVFQQDFTDIEKRLLQSGEDYIAMLEEALAGYGRYLDLLQARAEPDLIIQAFNEYQLLCALREGPFGVAGLNERIEQFMQQKRKIHRHPHSRWYEGRPVMIARNDSALGLFNGDIGIALDRGQGTRVWFAMPDGNIKSVQPSRLPEHETTWAMTVHKSQGSEFDHAALILPSQRTPVVTRELVYTAVTRARRRLSLYADERILSAAIATRTERRSGLAALFSSRE", "soluble on expression in E. coli": "not soluble"}
{"sequence": "MSLGTVHARSLDPLPMQGPELGVQADDMDLGEPEREEKQEVLENKDVVVQHVHIDGLGRTKEDILTYEIADVFHAKNLIDVMKKSHEARQKLLRLGIFRHVEVVIDTAEGADALPNGLDVTFEVRELRRMTGSYNTMVGNNEGSMVLGIKLPNVLGRAEKLTFQFSYGTKETSYGLSFFKPQPGHFERNFSLNLYKVTGQFPWSSLRETDRGVSAEISFPIWRTSHTLKWEGVWRELGCLARTASFAVREESGHSLKSSLAHAMVIDTRNSTILPRKGALLKINQELAGYTGGDVSFLKEDFEIQLNKTLFWDSVLSTSLWGGMLLPLGEKASSIADRFYLGGPTSVRGFSMYSIGPQSEGDYLGGEAYWAGGVHLYTPLPFRPGRGGFGDLFRTHFFLNAGNLCNLNYGEGPRAHLSKLAECIRWSYGAGIVLRLGNIARLELNYCIPMGVQSGDRICDGVQFGAGIRFLEGHHHHHH", "soluble on expression in E. coli": "not soluble"}
{"sequence": "MGKSELSGRLNWQALAGLKASGAEQNLYNVFNAVFEGTKYVLYEKPKHLKNLYAQVVLPDDVIKEIFNPLIDLSTTQWGVSPAFAIENTETHKILFGEIKRQDGWVEGKDPSAGRGNAHERSCKLFTPGLLKAYRTIGGINDEEILPFWVVFEGDITRDPKRVREITFWYDHYQDNYFMWRPNESGEKLVQHFNEKLKKYLD", "soluble on expression in E. coli": "soluble"}
{"sequence": "MSIPVPMETGANSEAWKKANEALMKIQGGMSKGLNASNGNNNTGQNSWMNNSFSFPNPPSAYGQFGGGFHPSTWGSGPIVPPPPPQQSAVNATAQAAYNQASFNYAPPPPPQNWNNGYGRGRGGGANNWNQQQRPQQFQPFALNRKNNSSAFPHLTSTFVPQGGGPQPLMGVGRGRGVPAPGPAKPPPPSAQRYMERAFEAANTVEDRQKTQEYLQKRLFPMLNAGNAHMVNWDNEPLPHEKNYELAPAWTPANKLPHQANGFNRKKSPSRRRSDEMSNSGAAGGGGQMKRARRDSDGASSDSDNSDPLEKMHFSSMNQKKTKAQKKAEKAARKAAKKLQKQQTPQKVKNAWKVAGGDTEARREDRARRFAETLYNVSKPSVSVPQHYFRRGQVIRGTCQNIEKSFFRLTAAPNPSEVRPLEVLRLSLQNVRDKYRARAEYSYLTSQMRSIRQDLTVQVIRNEFTVEVYEINARISLENADREEFNKCQSQLKLLYSEIENCANQAEFVAYRLLYYIAMDNQIDINALLRELTPELKENDCVEFALNVRKAVTMNNYVKFFRLFKNAPRMCPYIMDLFVDRERKKALGIITKAFRPTITYKLIAEFLSMKESTLIDWLEEELKWTDVEVGGTFDPKIPRNI", "soluble on expression in E. coli": "not soluble"}
